According to patent publication US12415833B2, “Method for activating helper T cell” (International Institute of Cancer Immunology, Inc., priority 2010, dated 2025):
No end group written: not given here.

What was measured:
Assay in all cases: Folding test of HLA class II monomer protein with peptide using HPLC
Type in all cases: binding
Details in all cases: 50-fold molar peptide, 37° C. overnight, compared with control (solvent only), folding criterion not less than 0.1 minute
[1] = biological target: HLA class II monomer protein DRB1*0405 (Homo sapiens, UniProt P01903+P01911, A100R/A169T/D86S/F76Y/I96L/K127E/L162R/M171V/N62H/P40V/Q125Y/R42H/S133A/S149N/S66Y/V115G/V209L/W38E)
Method: (§1) Next, in order to evaluate a binding ability of WT1-332 with MHC class II molecules, a folding test of 7 types of HLA class II monomer proteins (DRB1*1501, 0101, 0405, 0803, 0901, 1502, or DRB4*0101) with WT1-332 was carried out using HPLC. Briefly, a folding reaction solution was prepared by mixing an HLA class II monomer protein, a peptide [a peptide binding to each protein (positive control), a peptide not binding to each protein (negative control), and WT1-332], and a folding buffer. After reacting the solution at 37° C., the retention time was analyzed using HPLC. The folding with WT1-332 was evaluated by utilizing a shift of the retention time due to the binding of an HLA class II monomer protein with a peptide.
(§2) HLA class II monomer proteins which had been freeze-preserved at −80° C. were thawed on ice. The HLA class II monomer proteins thawed were adjusted using a dilution buffer so that they were contained in an amount of 0.05 mg (1×10−^9 mol) in 83 μL.
(§3) About 1 mg of each peptide was weighed by an electronic balance, transferred to a glass vial, and dissolved in DMSO to give a concentration of 20 mg/mL.
(§4) The amount of a peptide which is a 50-fold molar amount relative to an HLA class II monomer protein was calculated using the following calculation formula. Amount of peptide required: 1×10^−9 mol×50=5×10^−8 mol (amount of peptide required) […]×(Molecular weight of peptide)×1,000=(amount of peptide required)(mg) (Amount of peptide required)/[purity of peptide/100]=(amount of peptide added)(mg) [(Amount of peptide added)/20 mg/mL]×1,000=(amount of peptide solution added)(μL) Calculation of Amount of Folding Buffer Added
(§5) As a folding buffer, a 10% amount of a mixed solution of an HLA class II monomer protein and a peptide was added. The amount of the folding buffer added was calculated using the following calculation equation. [83 μL (Amount of HLA class II monomer protein)+(amount of peptide solution in 50-fold molar amount)]×0.1=amount of folding buffer added Analysis of Folding Using HPLC
(§6) To a glass vial charged with an HLA class II monomer protein, a peptide solution and a folding buffer were added in a calculated amount, and the mixture was allowed to stand at 37° C. overnight. HPLC (Waters 2695 Separation Module) was started, and a Seperdex 200 column was equilibrated with an equilibrating buffer. To all samples, 300 μL of the equilibrate buffer was added and well mixed, and a 100 μL portion of the mixture was used as a sample injection volume to calculate the retention time. Analysis time was 50 minutes. The criterion for the folding of an HLA class II monomer protein with a peptide is a shift of the retention time of not less than 0.1 minute as compared with a control (solvent only).

[2] = biological target: HLA class II monomer protein DRB1*0901 (Homo sapiens, UniProt P01903+P01911, A100R/A103E/D57H/D86V/F55Y/F60I/F76Y/I96F/K127E/L162R/M171V/P40D/Q125H/Q99R/R33Q/R42F/S133A/S66N/T210M/V115G/W38K/Y107V/Y59G/Y89S)
Method: as §1, §2, §3, §4, §5, §6

[3] = biological target: HLA class II monomer protein DRB1*1502 (Homo sapiens, UniProt P01903+P01911, V115G)
Method: as §1, §2, §3, §4, §5, §6

[4] = biological target: HLA class II monomer protein DRB1*0101 (Homo sapiens, UniProt P01903+P01911, A100R/D57E/F55L/F60I/F76Y/I96L/L162R/M171V/P40L/Q125E/R42F/V115G/Y59C)
Method: as §1, §2, §3, §4, §5, §6

[5] = biological target: HLA class II monomer protein DRB1*1501 (Homo sapiens, UniProt P01903+P01911)
Method: as §1, §2, §3, §4, §5, §6

[6] = biological target: HLA class II monomer protein DRB4*0101 (Homo sapiens, UniProt P01903+P13762, G164S)
Method: as §1, §2, §3, §4, §5, §6

[7] = biological target: HLA class II monomer protein DRB1*0803 (Homo sapiens, UniProt P01903+P01911, A100R/A103L/A169T/D86S/F76Y/H45Y/K41T/L162R/M171V/P40S/Q125H/Q178H/Q39Y/Q99D/R218S/R42G/S66Y/V115G/W38E)
Method: as §1, §2, §3, §4, §5, §6

Measured: degree of shift of the retention time

Chain of HLA class II monomer protein DRB1*1502 (P01903 26-254, other chains not shown): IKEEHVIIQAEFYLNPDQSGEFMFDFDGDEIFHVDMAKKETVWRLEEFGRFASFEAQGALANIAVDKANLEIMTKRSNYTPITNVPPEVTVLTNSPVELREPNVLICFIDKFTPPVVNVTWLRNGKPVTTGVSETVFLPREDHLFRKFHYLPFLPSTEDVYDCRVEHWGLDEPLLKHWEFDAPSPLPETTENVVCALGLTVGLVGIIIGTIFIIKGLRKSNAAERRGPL

KRYFKLSHLQMHSRKH [WT1-332]
not less than 0.1 minute: all assays above
